The text below walks through data of paper PMC2912912 (BMC Structural Biology, 2010).

“And” between values parts separate entries of the source, which are not always exact repeats. Identical values can stand only once.

This data set concerns the molecule itself. Briefly: SEC; analytical gel filtration, Tricorn Superdex 200 10/300, samples 5 mg/mL, 20 mM Tris-HCl pH 8.0, 200 mM NaCl, 1 mM DTT, 4°C; molecular weight against globular standards.

B1: IpgC^10-155 (invasion plasmid gene C, residues 10-155) (domain or fragment)
chain: SISTAVIDAINSGATLKDINAIPDDMMDDIYSYAYDFYNKGRIEEAEVFFRFLCIYDFYNVDYIMGLAAIYQIKEQFQQAADLYAVAFALGKNDYTPVFHTGQCQLRLKAPLKAKECFELVIQHSNDEKLKIKAQSYLDAIQDIKE
notes: source: E. coli BL21 (DE3), purified (Ni2+-NTA Sepharose, TEV digestion, Resource Q)
With B1, the “stoichiometry N” value turned out to be 2.

B2: full-length IpgC (invasion plasmid gene C) (natural protein)
chain: MSLNITENESISTAVIDAINSGATLKDINAIPDDMMDDIYSYAYDFYNKGRIEEAEVFFRFLCIYDFYNVDYIMGLAAIYQIKEQFQQAADLYAVAFALGKNDYTPVFHTGQCQLRLKAPLKAKECFELVIQHSNDEKLKIKAQSYLDAIQDIKE
As for B2, the “stoichiometry N” value worked out at 2.

B3: IpgC^21-155 (invasion plasmid gene C, residues 21-155) (domain or fragment)
chain: SGATLKDINAIPDDMMDDIYSYAYDFYNKGRIEEAEVFFRFLCIYDFYNVDYIMGLAAIYQIKEQFQQAADLYAVAFALGKNDYTPVFHTGQCQLRLKAPLKAKECFELVIQHSNDEKLKIKAQSYLDAIQDIKE
Regarding B3, the “stoichiometry N” value is 4 and 2.
